Reference: FireProtDB (doi:10.1016/0022-2836(92)90562-x)

B1: Ribonuclease, P00648 (parent)
chain: MMKMEGIALKKRLSWISVCLLVLVSAAGMLFSTAAKTETSSHKAHTEAQVINTFDGVADYLQTYHKLPDNYITKSEAQALGWVASKGNLADVAPGKSIGGDIFSNREGKLPGKSGRTWREADINYTSGFRNSDRILYSSDWLIYKTTDHYQTFTKIR

Variants of: B1
Settings: Bacillus amyloliquefaciens; pH 6.3; 25 °C; Urea; Fluorescence; MES-NaOH 450 mM; reversible: yes; structure 1BNI; whole UniProt chain shown

| Variant | ddG of mutation (higher = less stable) | denaturant m value | denaturant midpoint (higher = more stable) | unfolding free energy |
| --- | --- | --- | --- | --- |
| N88D | 2.62 kcal/mol | 1.89 kcal/mol/M | 3.2 M | 6.2 kcal/mol |
| I102T | 1.24 kcal/mol | 1.84 kcal/mol/M | 4.1 M | 7.58 kcal/mol |
| I102V | 0.63 kcal/mol | 1.85 kcal/mol/M | 4.4 M | 8.19 kcal/mol |
| T73A | 1.67 kcal/mol | 2 kcal/mol/M | 3.5 M | 7.15 kcal/mol |
| T73G | 1.01 kcal/mol | 2.03 kcal/mol/M | 3.8 M | 7.81 kcal/mol |
| Y64A | 1.67 kcal/mol | 2.02 kcal/mol/M | 3.5 M | 7.15 kcal/mol |
| N70A | 2.2 kcal/mol | 1.94 kcal/mol/M | 3.4 M | 6.62 kcal/mol |
| L61A | 4.53 kcal/mol | 1.87 kcal/mol/M | 2.2 M | 4.29 kcal/mol |
| N52A | 1.59 kcal/mol | 2 kcal/mol/M | 3.6 M | 7.23 kcal/mol |
| L136T | 3.28 kcal/mol | 1.78 kcal/mol/M | 3.1 M | 5.54 kcal/mol |
| L136V | 0.47 kcal/mol | 1.89 kcal/mol/M | 4.4 M | 8.35 kcal/mol |
| Y60A Y64A | 3.96 kcal/mol | 2 kcal/mol/M | 2.43 M | 4.86 kcal/mol |
| S138A | 2.41 kcal/mol | 1.79 kcal/mol/M | 3.5 M | 6.41 kcal/mol |
| I98A | 4.72 kcal/mol | 1.9 kcal/mol/M | 2.1 M | 4.1 kcal/mol |
| I98V | 1.13 kcal/mol | 2.11 kcal/mol/M | 3.6 M | 7.69 kcal/mol |
| I156A | 1.27 kcal/mol | 2.15 kcal/mol/M | 3.5 M | 7.55 kcal/mol |
| I156V | 0.81 kcal/mol | 1.92 kcal/mol/M | 4.1 M | 8.01 kcal/mol |
| I72V | 0.83 kcal/mol | 2 kcal/mol/M | 4 M | 7.99 kcal/mol |
| I72A | 3.68 kcal/mol | 1.85 kcal/mol/M | 2.7 M | 5.14 kcal/mol |
| I143A | 3.15 kcal/mol | 1.96 kcal/mol/M | 2.8 M | 5.67 kcal/mol |

| Variant | ddG of mutation (higher = less stable) | denaturant m value | denaturant midpoint (higher = more stable) | unfolding free energy |
| --- | --- | --- | --- | --- |
| I143V | 1.02 kcal/mol | 1.9 kcal/mol/M | 4.1 M | 7.8 kcal/mol |
| N124A | 1.45 kcal/mol | 1.98 kcal/mol/M | 3.7 M | 7.37 kcal/mol |
| D55A D59A R157A | -0.18 kcal/mol | 1.94 kcal/mol/M | 4.63 M | 9 kcal/mol |
| I51A | 0.75 kcal/mol | 2.08 kcal/mol/M | 3.8 M | 8.07 kcal/mol |
| I51V | 0.81 kcal/mol | 1.88 kcal/mol/M | 4.2 M | 8.01 kcal/mol |
| D59A | 0.39 kcal/mol | 1.91 kcal/mol/M | 4.4 M | 8.43 kcal/mol |
| T152V | 2.14 kcal/mol | 1.95 kcal/mol/M | 3.4 M | 6.68 kcal/mol |
| N105D | -0.31 kcal/mol | 1.9 kcal/mol/M | 4.8 M | 9.13 kcal/mol |
| N105A | 2 kcal/mol | 1.97 kcal/mol/M | 3.4 M | 6.82 kcal/mol |
| R157A | -0.07 kcal/mol | 2.03 kcal/mol/M | 4.3 M | 8.89 kcal/mol |
| Y60A | 3 kcal/mol | 2.03 kcal/mol/M | 2.8 M | 5.82 kcal/mol |
| D101N | 1.78 kcal/mol | 2.11 kcal/mol/M | 3.3 M | 7.04 kcal/mol |
| D101A | 2.86 kcal/mol | 1.95 kcal/mol/M | 3 M | 5.96 kcal/mol |
| Y150F | 0.18 kcal/mol | 1.89 kcal/mol/M | 4.5 M | 8.64 kcal/mol |
| V83T | 1.05 kcal/mol | 1.95 kcal/mol/M | 3.9 M | 7.77 kcal/mol |
| V83A | 1.68 kcal/mol | 1.83 kcal/mol/M | 3.9 M | 7.14 kcal/mol |
| V92A | 1.17 kcal/mol | 2.08 kcal/mol/M | 3.6 M | 7.65 kcal/mol |
| V92T | 2.22 kcal/mol | 1.99 kcal/mol/M | 3.3 M | 6.6 kcal/mol |
| D55A D59A | 1.41 kcal/mol | 1.78 kcal/mol/M | 4.16 M | 7.41 kcal/mol |
| V57T | 1.99 kcal/mol | 2.07 kcal/mol/M | 3.3 M | 6.83 kcal/mol |

| Variant | ddG of mutation (higher = less stable) | denaturant m value | denaturant midpoint (higher = more stable) | unfolding free energy |
| --- | --- | --- | --- | --- |
| V57A | 3.47 kcal/mol | 1.89 kcal/mol/M | 2.8 M | 5.35 kcal/mol |
| K109R | 0.32 kcal/mol | 1.95 kcal/mol/M | 4.3 M | 8.5 kcal/mol |
| D55A | 0.85 kcal/mol | 1.94 kcal/mol/M | 4.1 M | 7.97 kcal/mol |
| K74G | 0.38 kcal/mol | 1.94 kcal/mol/M | 4.3 M | 8.44 kcal/mol |
| T146V | 2.92 kcal/mol | 1.84 kcal/mol/M | 3.2 M | 5.9 kcal/mol |
| I135A | 4.02 kcal/mol | 1.94 kcal/mol/M | 2.4 M | 4.8 kcal/mol |
| I135V | 1.64 kcal/mol | 1.85 kcal/mol/M | 3.8 M | 7.18 kcal/mol |
| N131A | 1.59 kcal/mol | 2.04 kcal/mol/M | 3.5 M | 7.23 kcal/mol |
| E76G | 2.05 kcal/mol | 1.84 kcal/mol/M | 3.6 M | 6.77 kcal/mol |
| Q78S | -0.07 kcal/mol | 2 kcal/mol/M | 4.4 M | 8.89 kcal/mol |
| T53A | 2.02 kcal/mol | 1.97 kcal/mol/M | 3.4 M | 6.8 kcal/mol |
| T53G | 0.61 kcal/mol | 2.08 kcal/mol/M | 3.9 M | 8.21 kcal/mol |
| S139A | 3.22 kcal/mol | 1.78 kcal/mol/M | 3.1 M | 5.6 kcal/mol |
| I123V | 0.98 kcal/mol | 1.89 kcal/mol/M | 4.1 M | 7.84 kcal/mol |
| I123A | 1.66 kcal/mol | 1.99 kcal/mol/M | 3.6 M | 7.16 kcal/mol |
| Y71F | -0.09 kcal/mol | 1.95 kcal/mol/M | 4.5 M | 8.91 kcal/mol |
| Y125F | 1.14 kcal/mol | 1.98 kcal/mol/M | 3.8 M | 7.68 kcal/mol |
| T63R | -0.74 kcal/mol | 1.99 kcal/mol/M | 4.8 M | 9.56 kcal/mol |
| T63S | 1.36 kcal/mol | 2.03 kcal/mol/M | 3.6 M | 7.46 kcal/mol |
| D59A R157A | -0.39 kcal/mol | 1.93 kcal/mol/M | 4.78 M | 9.21 kcal/mol |
